# Assay results published in the supplement of paper PMC9170038.
# System: MS2 coat protein
# Assay: apparent KD of MS2 coat protein, switch ON state; designed switch direction (-1 OFF switch, 1 ON switch): 1; higher = weaker reporter binding
# Conditions: FMN input: 0 or 200 uM; Eterna round: R93 (includes R88 designs)
# Outline: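 The designed RNA switches were transcribed on-chip from Illumina sequencing clusters. In 100 mM Tris-HCl pH 7.5, 80 mM KCl and 4 mM MgCl2, without or with constant ligand, they were titrated with SNAP-549-labelled MS2 coat protein from 0.7 or 1.5 nM to 3 µM in twofold steps. Apparent KD is the per-design median of normalised cluster binding-curve fits.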
row,Sequence,apparent KD of MS2 coat protein [nM]
1,UACACGCGGGCGCAGGAUAUGUCGCUGGUGACAUGAGGAUCACCCAUGUAUACCAUUGCGGUUGAGCAGAAGGGUGAGAAGCGUG [Raanlaza],20.4
2,UUGCAGUACGGGUAGGAUAUGUAGGGUGGUACAUGAGGAUCACCCAUGUGUCCACCCUUCGACCGGCAGAAGGGCCUGUCACUGC [Lerieseser],17.5
3,UGGAGACAUGAGGAUCACCCAUGUGAGAAGAGGCGAGGAUAUCGAAAGAAAGAAGAGAAACGAGAAGGCGCGAGGG [salish99-SS1-043],49.7
4,AAAUAACAUGAGGAUCACCCAUGUCAAAUAAAUCGAGGAUAUGGGCCCGGGUUCCGGGAGCCAGAAGGCGAAAAGA [Teledimaqu],16.9
5,CUAGUUGCAUACUAGGAUAUACACUGGGUGACAUGAGGAUCACCCAUGUAAAAGCACAUUCGGUAGUAGAAGGAGUGUGCAGGUC [Ceedesbi],92.6
6,AAAAAACAUGAGGAUCACCCAUGUCUUCGGACGUGAGGAUAUGUACAGACUUCGGUCUGUACAGAAGGCACAAAAA [SS1 - 1033],38.1
7,"AAACCACAUGAGGAUCACCCAUGUAAAAUAAUGGGAGGAUAUACUAGAAGAAACAAAAUAGUAGAAGGCUCAAAAA [75%, Ex sub1, 34]",28.2
8,AAAAUACAUGAGGAUCACCCAUGUGAGAAAAACGCAGGAUAUGCCCGAAAAAAAAGGCGGGCAGAAGGGUGAAAAA [SameState1-II],35.5
9,AAAAUACAUGAGGAUCACCCAUGUGAAAAUAUGGGAGGAUAUACCGAAAAAAAAAAAACGGUAGAAGGCCCAAAAA [SS! 1 MT 7],18.7
10,AGAAAACAUGAGGAUCACCCAUGUGAUAAUAUGGGAGGAUAUACGGAGACGAAAGUCGACGUAGAAGGCCUAAAGA [Garnet 49],42.9
11,GAAAAACAUGAGGAUCACCCAUGUAGAAAUAUGGGAGGAUAUACAAAGUCGAAAGUCAAAGUAGAAGGCCUAAAAG [Garnet 26],40.7
12,AAAAAACAUGAGGAUCACCCAUGUCGAAAGACAUGAGGAUAUGUACAGACUUCGGUCUGUACAGAAGGCAUGUCAA [SS1 - 1020],19.4
13,GGCAAACAUGAGGAUCACCCAUGUCAGUGCUAUCAAGGAUAUGGGAUGACGGAAGGUCGGCCAGAAGGUGAGAAAG [Quededma],233
14,GUGUAUAGCCUCGAGGAUAUCCUGUAAUGCACAUGAGGAUCACCCAUGUAUGAGCGAGUUUUUUGGGAGAAGGCGAGUUAUCGGU [JR_SS002_Sub1709],12.9
15,CGAAAGGAGAGAGAGGAUAUCCAAAGGAAAACAUGAGGAUCACCCAUGUAGAAGGUAGGAGAUUGGGAGAAGGCUCAAGAGAGGC [salish99-ss2-150],18.5
16,UAAAAAACGUAUGAGGAUAUCCAAAAUAAAACAUGAGGAUCACCCAUGUGAAUAAAAUAACAAUGGGAGAAGGCAUACGUAUCAU [Mat - Same state - Malcolm Mod - D138],46.3
17,"AGGAAACAUGAGGAUCACCCAUGUAAAAAAGUGGGAGGAUAUGCGAAAAGAAAAAGAAAAGCAGAAGGCCUAAGAA [62%, Something completely different, 6]",21.9

row,Sequence,apparent KD of MS2 coat protein [nM]
1,UGGAGACAUGAGGAUCACCCAUGUGAGAAGAGGCGAGGAUAUCGAAAGAAAGAAGAGAAACGAGAAGGCGCGAGUA [salish99-SS1-038],32.1
2,AGAAAUAAAGCAGAGGAUAUCCAAAAGAAAACAUGAGGAUCACCCAUGUAAAAGAAAAUAAAAUGGGAGAAGGCUGCAAAUAAAG,18.5
3,UUUAGCUGCGGGCAGGAUAUGUAUUAAAAUACAUGAGGAUCACCCAUGUGCAGGUGUAACACCUGACAGAAGGGCCAAUCGCGGC [Bequre],25
4,AAGAAUGUUUACGAGGAUAUGUUCCGCAGAACAUGAGGAUCACCCAUGUGAACAAGAAAGGCGACGCAGAAGGCGUGAGCAAAGA [Laatreve],45.7
5,GAGUACAUAGUACAGGAUAUAUGAAUAGUUACAUGAGGAUCACCCAUGUGCAUUUAUAUGCGCACAUAGAAGGGUGGUAGGUAUC [Mat - Same state - Malcolm Mod - D127],38.8
6,AAAAAACAUGAGGAUCACCCAUGUGAAAAUAUGGGAGGAUAUACAAAGACGAAAGUCAAAGUAGAAGGCCUAAAAA [Mat - Same State 1 - Eli mod - D86],18.4
7,GGAAGACAUGAGGAUCACCCAUGUGGGAUUAUGGGAGGAUAUACAAAGACGAGAGUCAGAGUAGAAGGCCUAGGAA [salish99-ss1-120(!)],28.6
8,AGAAAACAUGAGGAUCACCCAUGUAGAAACAUGGGAGGAUAUACAAAGACGAAAGUCAAAGUAGAAGGCCUAAAGA [Mat - Same State 1 - Mod - D161],207
9,AAUAUACAUGAGGAUCACCCAUGUUUUGGUGUAUGAGGAUAUAAAAAAAAUUAAAUAAAAUUAGAAGGCAUAAAUA [JR_SS001_Sub001],49.2
10,UAACAACAUGAGGAUCACCCAUGUCAAACAGAUCGAGGAUAUGGGCAGGGUUUUCCCUAACUAGAAGGCGAAGACA [Leinxeerri],71.1
11,AAAACACAUGAGGAUCACCCAUGUAAAAACAUGGGAGGAUAUGCAUGAAAAACAUGCUAUGCAGAAGGCUCAUGUG [SS1 - 2],29
12,GGGAGACAUGAGGAUCACCCAUGUGAGAAGAGGCGAGGAUAUCGAAAGAAAGAAGAGAAACGAGAAGGCGCGAGUC [salish99-SS1-062],45.2
13,GAAAAACAUGAGGAUCACCCAUGUAGAAAUAUGGGAGGAUAUACUAAGACGAAAGUCGAUGUAGAAGGCCUAAAAG [Same State 1.4g (Mat - Mod of Eli - )],21.6
14,AGGAGACAUGAGGAUCACCCAUGUGCGAGGUGAAGAGGAUAUAGAAGAAGAAGAAAGAAACUAGAAGGCUUAAAAA [JR_SameState1_Sub1],122
15,AAAGACGUGGCGUAGGAUAUACUAAUAUUCACAUGAGGAUCACCCAUGUUCAUAUAUAUGAACGAGUAGAAGGACGACGAAAAAA [SameState2 Malc#1],59.3
16,AGGAGACAUGAGGAUCACCCAUGUGAGAAGAGGCGAGGAUAUCGAAAGAAAGAAGAGAAACGAGAAGGCGCGAGUC [salish99-SS1-030],25.6
